From US20220098305A1 (Hoffmann-La Roche, published 2022)
Positions count from the first letter of the chain named.

Assays:
human ICOS [1] = biological target: T1, human ICOS (human, UniProt Q9Y6W8 21-199); experiment: flow cytometry, CHO cells expressing human ICOS
T1 construct: The cell that carries it is named under assay; also called huICOS; CD278
T1 sequence: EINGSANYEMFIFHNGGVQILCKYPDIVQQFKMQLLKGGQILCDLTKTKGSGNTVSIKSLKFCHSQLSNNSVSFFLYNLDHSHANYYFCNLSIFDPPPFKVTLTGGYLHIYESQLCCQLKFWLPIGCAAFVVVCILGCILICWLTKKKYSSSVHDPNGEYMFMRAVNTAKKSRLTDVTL
Experimental: (§1) Briefly, suspension cells were harvested, counted, checked for viability and re-suspended at 1 million cells per ml in FACS buffer (PBS with 0.1% BSA). […] The staining was fixed for 20 min at 4° C. in the dark, using 75 μl of 1% PFA in FACS buffer per well.
(§2) Fluorescence was analyzed by FACS using a FACS Fortessa (Software FACS Diva). Binding curves and EC₅₀ values were obtained using GraphPadPrism 7.

cynomolgus ICOS [2] = biological target: T2, cynomolgus ICOS (cynomolgus, UniProt Q9Y6W8 21-195 (human entry)); experiment: flow cytometry, activated cynomolgus PBMCs, CD8+ subset
T2 chain: T1 sequence with T54K, H81R, A129T, L136F, S152T, D176G, V177T, L179P
Experimental: as §1
(§3) Briefly, cynomolgus PBMCs were activated for 48 hours using Dynabeads™ Human T-Activator CD3/CD28 (Thermo Fischer #11131D) according to manufacturer instruction and stored in RPMI1640 medium containing 10% FCS and 1% Glutamax (Gibco 35050061) at 37° C., in a humidified incubator until subsequent binding experiment was performed, as described above.

cynomolgus ICOS [3] = biological target: T2, cynomolgus ICOS; experiment: flow cytometry, activated cynomolgus PBMCs, CD4+ subset
Experimental: as §1, §3

murine FAP [4] = biological target: T3, murine FAP (murine, UniProt P97321 26-761, limits assumed); experiment: flow cytometry, cells carrying murine FAP not told
T3 construct: also called mouse FAP

murine FAP [5] = biological target: T3, murine FAP; experiment: flow cytometry, % positive cells; cells bearing murine FAP not given
cynomolgus ICOS [6] = biological target: T2, cynomolgus ICOS; experiment: flow cytometry, activated cynomolgus PBMCs, CD8+ subset
Experimental: as §1, §3

human ICOS [7] = biological target: T1, human ICOS; experiment: flow cytometry on CHO cells stably expressing human ICOS, AF647-labelled anti-human Fc secondary antibody, MFI
Experimental: as §1, §2

murine ICOS = biological target: T4, murine ICOS (murine, UniProt Q9WVS0 21-200); experiment: flow cytometry, pre-activated murine splenocytes (figure legend: recombinant CHO cells)
T4 sequence: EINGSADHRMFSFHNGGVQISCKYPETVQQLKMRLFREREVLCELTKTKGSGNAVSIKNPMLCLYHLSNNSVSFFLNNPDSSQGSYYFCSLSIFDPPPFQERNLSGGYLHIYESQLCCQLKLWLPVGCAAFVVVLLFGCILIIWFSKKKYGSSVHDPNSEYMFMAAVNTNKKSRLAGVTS

human FAP = biological target: T5, human FAP (human, UniProt Q12884 1-760); experiment: flow cytometry, NIH/3T3-huFAP clone 19 cells
T5 construct: also called hu FAP
Experimental: as §1, §2

cynomolgus ICOS [8] = biological target: T2, cynomolgus ICOS; experiment: flow cytometry, activated cynomolgus PBMCs, CD4+ subset
Experimental: as §1, §3

B1: Molecule 9, bispecific 2+1 anti-ICOS (1167)/anti-FAP (4B9) huIgG1 P329GLALA kih (bispecific antibody)
heavy 1: EVRLLESGGGLVQPGGSLRLSCAASGFTFNTYAVHWVRQAPGKGLEWVSGIGGSGVRTYYADSVKGRLTISRDNSKNTLYLQMNSLRAEDTAIYFCAKDIYVADFTGYAFDIWGQGTMVTVSSASTKGPSVFPLAPSSKSTSGGTAALGCLVKDYFPEPVTVSWNSGALTSGVHTFPAVLQSSGLYSLSSVVTVPSSSLGTQTYICNVNHKPSNTKVDKKVEPKSCDKTHTCPPCPAPEAAGGPSVFLFPPKPKDTLMISRTPEVTCVVVDVSHEDPEVKFNWYVDGVEVHNAKTKPREEQYNSTYRVVSVLTVLHQDWLNGKEYKCKVSNKALGAPIEKTISKAKGQPREPQVCTLPPSRDELTKNQVSLSCAVKGFYPSDIAVEWESNGQPENNYKTTPPVLDSDGSFFLVSKLTVDKSRWQQGNVFSCSVMHEALHNHYTQKSLSLSPGGGGGSGGGGSGGGGSGGGGSEIVLTQSPGTLSLSPGERATLSCRASQSVTSSYLAWYQQKPGQAPRLLINVGSRRATGIPDRFSGSGSGTDFTLTISRLEPEDFAVYYCQQGIMLPPTFGQGTKVEIK
heavy 2: not shown
light: DIQMTQSPSSVSASVGDRVTITCRASQGINNFLAWYQQKPGKAPKLLIYDASSLQSGVPSRFAGSGSGTDFTLTISSLQPEDFATYYCQQYNFYPLTFGGGTMVEIKRTVAAPSVFIFPPSDRKLKSGTASVVCLLNNFYPREAKVQWKVDNALQSGNSQESVTEQDSKDSTYSLSSTLTLSKADYEKHKVYACEVTHQGLSSPVTKSFNRGEC
notes: also called FAP-ICOS (2+1)
- EC50 (human ICOS [1]): 2.72 nM
- EC50 (cynomolgus ICOS [2]): 10.5 nM
- EC50 (cynomolgus ICOS [3]): 5.5 nM
- EC50 (murine FAP [4]): 0.505 nM
- EC50 (read off the curve) (murine FAP [5]): ~0.5 nM
- EC50 (cynomolgus ICOS [6]): 10.5 nM
- EC50 (read off the curve) (human ICOS [7]): ~3 nM
- EC50 (murine ICOS): 7.21 nM
- EC50 (human FAP): 5.73 nM
- EC50 (cynomolgus ICOS [8]): 5.5 nM
